Substitutions are numbered along the chain they refer to.
Tests used:
[1] = target: T1, human C5a (source not stated) (human, UniProt P01031 678-751); assay: cell-based or functional assay
T1 sequence: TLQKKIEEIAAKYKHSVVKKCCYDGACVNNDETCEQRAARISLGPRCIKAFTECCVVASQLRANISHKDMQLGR

C5a-T1A = target: T2, C5a-T1A; assay: ELISA on the coated C5a protein, antibody titrated, OD410
T2 single chain: T1 sequence with T1A

C5a-L2A = target: T3, C5a-L2A; assay: as above
T3 single chain: T1 sequence with L2A

C5a-Q3A = target: T4, C5a-Q3A; assay: as above
T4 single chain: T1 sequence with Q3A

C5a-K4A = target: T5, C5a-K4A; assay: as above
T5 single chain: T1 sequence with K4A

C5a-K5A = target: T6, C5a-K5A; assay: as above
T6 single chain: T1 sequence with K5A

C5a-E7A = target: T7, C5a-E7A; assay: as above
T7 single chain: T1 sequence with E7A

C5a-E8A = target: T8, C5a-E8A; assay: as above
T8 single chain: T1 sequence with E8A

C5a-K12A = target: T9, C5a-K12A; assay: as above
T9 single chain: T1 sequence with K12A

C5a-N30A = target: T10, C5a-N30A; assay: as above
T10 single chain: T1 sequence with N30A

C5a-T33A = target: T11, C5a-T33A; assay: as above
T11 single chain: T1 sequence with T33A

C5a-A63R = target: T12, C5a-A63R; assay: as above
T12 single chain: T1 sequence with A63R

C5a-S66A = target: T13, C5a-S66A; assay: as above
T13 single chain: T1 sequence with S66A

C5a-S66R = target: T14, C5a-S66R; assay: as above
T14 single chain: T1 sequence with S66R

C5a-H67A = target: T15, C5a-H67A; assay: as above
T15 single chain: T1 sequence with H67A

C5a-K68A = target: T16, C5a-K68A; assay: as above
T16 single chain: T1 sequence with K68A

C5a-D69A = target: T17, C5a-D69A; assay: as above
T17 single chain: T1 sequence with D69A

C5a-M70A = target: T18, C5a-M70A; assay: as above
T18 single chain: T1 sequence with M70A

C5a-Q71A = target: T19, C5a-Q71A; assay: as above
T19 single chain: T1 sequence with Q71A

C5a-L72A = target: T20, C5a-L72A; assay: as above
T20 single chain: T1 sequence with L72A

[2] = target: T1, human C5a (source not stated); assay: ELISA on the coated protein, biotinylated Cab42 titrated, SA-HRP, OD410

B1: Cab42-IgG1 (antibody, V domains shown)
VH: EMQLVESGGGLVQPGGSLRLSCAASGFTFSDYYMQWVRQAPGKGPEWVGLIRNKAVGETTQYAASVKGRFTISRDDSKNSVYLQMNSLKTEDTAVYYCVSRAGPPGLSWGQGVLVTVSS
VL: DIVMTQSPLSLPVTPGEPASISCRSSQSLLASDAYNYIDWYLQKPGQSPQLLIYGGSNRASGVPDRFSGSGSGTDFTLKISRVEAEDVGVYFCLQHRALPPTFGQGTKLEIK
notes: Full-length human IgG1; It was biotinylated in the peptide-Fc ELISA
How did the “ROS IC50” value [1] turn out when B1 was run?
Its value is 780 pM.

Does B1 bind (C5a-T1A)?
Result: binds

Does B1 bind (C5a-L2A)?
Result: binds

Does B1 bind (C5a-Q3A)?
Result: binds

Does B1 bind (C5a-K4A)?
Result: binds

Does B1 bind (C5a-K5A)?
Result: binds

Does B1 bind (C5a-E7A)?
Result: binds

Does B1 bind (C5a-E8A)?
Result: binds

Does B1 bind (C5a-K12A)?
Result: binds

Does B1 bind (C5a-N30A)?
Result: binds

Does B1 bind (C5a-T33A)?
Result: binds

Does B1 bind (C5a-A63R)?
Result: binds

Does B1 bind (C5a-S66A)?
Result: binds

Does B1 bind (C5a-S66R)?
Result: binds

Does B1 bind (C5a-H67A)?
Result: binds

Does B1 bind (C5a-K68A)?
Result: binds

Does B1 bind (C5a-D69A)?
Result: binds

Does B1 bind (C5a-M70A)?
Result: binds

Does B1 bind (C5a-Q71A)?
Result: binds

Does B1 bind (C5a-L72A)?
Result: binds

And the “EC50 (read off the curve)” value [2]?
Its value is about 30 ng/w.

— patent US20230257454A1 (STAIDSON BEIJING BIOPHARMACEUTICALS, published 2023)
